B1: GST-MACF1 (aa 1M-293I) (domain or fragment, UniProt Q9QXZ0 1-293, looked up)
chain: MSSSDEETLSERSCRSERSCRSERSYRSERSGSLSPCPPGDTLPWNLPLHEQKKRKSQDSVLDPAERAVVRVADERDRVQKKTFTKWVNKHLMKVRKHINDLYEDLRDGHNLISLLEVLSGIKLPREKGRMRFHRLQNVQIALDFLKQRQVKLVNIRNDDITDGNPKLTLGLIWTIILHFQISDIYISGESGDMSAKEKLLLWTQKVTAGYTGVKCTNFSSCWSDGKMFNALIHRYRPDLVDMERVQVQSNRENLEQAFEVAERLGVTRLLDAEDVDVPSPDEKSVITYVSSI
modifications: CF555 label (Mix-n-Stain CF555)
B2: GST-AChR-α (loop between 3rd and 4th transmembrane domains) (domain or fragment, UniProt P04756 317-428, looked up)
chain: NTHHRSPSTHIMPEWVRKVFIDTIPNIMFFSTMKRPSRDKQEKRIFTEDIDISDISGKPGPPPMGFHSPLIKHPEVKSAIEGVKYIAETMKSDQESNNAAEEWKYVAMVMDH
modifications: CF555 label (Mix-n-Stain CF555)
B3: GST-β-dystroglycan (aa 773Y-893P) (domain or fragment, UniProt Q62165 773-893, looked up)
chain: YRKKRKGKLTLEDQATFIKKGVPIIFADELDDSKPPPSSSMPLILQEEKAPLPPPEYPNQSMPETTPLNQDTVGEYTPLRDEDPNAPPYQPPPPFTAPMEGKGSRPKNMTPYRSPPPYVPP
modifications: CF555 label (Mix-n-Stain CF555)
B4: GST-AChR-β (loop between 3rd and 4th transmembrane domains) (domain or fragment, UniProt P09690 333-469, looked up)
chain: HHRSPHTHQMPFWVRQIFIHKLPPYLGLKRPKPERDQLPEPHHSLSPRSGWGRGTDEYFIRKPPSDFLFPKLNRFQPESSAPDLRRFIDGPTRAVGLPQELREVISSISYMARQLQEQEDHDALKEDWQFVAMVVDR
modifications: CF555 label (Mix-n-Stain CF555)
B5: Rapsn-EGFP, purified (natural protein, UniProt P12672 1-412, looked up)
chain: MGQDQTKQQIEKGLQLYQSNQTEKALQVWMKVLEKGSDLVGRFRVLGCLVTAHSEMGRYKEMLKFAVVQIDTARGLEDADFLLESYLNLARSNEKLCEFHKTISYCKTCLGLPGTRAGAQLGGQVSLSMGNAFLGLSLFQKALESFEKALRYAHNNDDTMLECRVCCSLGSFYAQVKDYEKALFFPCKAAELVNDYGKGWSLKYRAMSQYHMAVAYRLLGHLGSAMECCEESMKIALQHGDRPLQALCLLCFADIHRSRGDLETAFPRYDSAMSIMTEIGNRLGQVHVLLGVAKCWMARKVQDKALDAIEKAQDLAEEVGNKLSQLKLHCLSESIYRSKGLQRELRTHVVRFHECVEETELYCGLCGESIGERNSRLQALPCSHIFHLRCLQNNGTRSCPNCRRSSMKPGFV

Columns and labels:
Rapsn-EGFP, purified = biological target: B5; assay: co-condensation into droplets
[1] = biological target: α-actinin2 (aa 1M-894L), purified ( (the printed UniProt entry …, UniProt Q9JI91 1-894, CF555 label (Mix-n-Stain CF555))); assay: co-condensation into droplets
Sequence of α-actinin2 (aa 1M-894L), purified ( (Q9JI91 whole entry): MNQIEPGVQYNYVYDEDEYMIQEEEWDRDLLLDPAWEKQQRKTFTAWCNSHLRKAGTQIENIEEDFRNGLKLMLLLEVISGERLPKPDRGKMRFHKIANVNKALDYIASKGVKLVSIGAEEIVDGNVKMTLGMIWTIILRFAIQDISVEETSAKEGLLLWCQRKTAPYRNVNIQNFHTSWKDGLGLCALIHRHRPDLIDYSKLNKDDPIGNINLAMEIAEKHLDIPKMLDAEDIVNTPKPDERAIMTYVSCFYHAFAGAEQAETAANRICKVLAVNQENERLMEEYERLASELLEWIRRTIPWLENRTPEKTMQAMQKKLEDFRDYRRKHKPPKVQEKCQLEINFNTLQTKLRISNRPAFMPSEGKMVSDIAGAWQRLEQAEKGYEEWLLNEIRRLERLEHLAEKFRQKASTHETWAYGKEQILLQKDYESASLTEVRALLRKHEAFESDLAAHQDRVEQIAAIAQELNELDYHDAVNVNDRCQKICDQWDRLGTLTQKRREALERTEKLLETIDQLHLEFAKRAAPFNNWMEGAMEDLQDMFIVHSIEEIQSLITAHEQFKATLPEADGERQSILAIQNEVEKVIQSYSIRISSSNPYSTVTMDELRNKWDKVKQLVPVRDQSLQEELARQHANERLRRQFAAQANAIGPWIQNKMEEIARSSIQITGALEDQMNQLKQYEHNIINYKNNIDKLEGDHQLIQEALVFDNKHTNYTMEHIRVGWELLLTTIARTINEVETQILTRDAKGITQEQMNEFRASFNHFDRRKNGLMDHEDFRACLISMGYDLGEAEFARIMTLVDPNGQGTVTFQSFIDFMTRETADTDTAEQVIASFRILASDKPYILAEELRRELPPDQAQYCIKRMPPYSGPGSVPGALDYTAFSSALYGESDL

Binder	binding result (Rapsn-EGFP, purified)	binding result [1]
B1	binds	–
B2	binds	–
B3	binds	–
B4	binds	–
B5	–	binds

— publication PMC8217331 (Neuron, 2021)
